According to patent US20150166987, “PROGRAMMABLE AND RECONFIGURABLE MICROCOLUMN AFFINITY CHROMATOGRAPY DEVICE, SYSTEM, AND METHODS OF USE THEREOF” (CORNELL UNIVERSITY, published 2015):

Assays:
GFP = GFP (UniProt P42212 P42212:1-238); assay: pulldown; serial microcolumns, qPCR; 10 mM HEPES-KOH pH 7.6, 125 mM NaCl, 25 mM KCl, 5 mM MgCl2, 0.02% Tween-20; GFP 0.6 ug/uL resin; settings: tags: N-terminal hexahistidine; immobilised on Ni-NTA Superflow resin
Protocol: (§1) The order of targets was as follows: Empty, GSH, Ni-NTA, Amylose, His-GFP, GST-hHSF1, His-NELF-E, His-UBLCP1, and is illustrated in FIG. 41 in section I.
(§2) The RNA pools were injected at a rate of 33 μL/min for 30 min with a 10 μL aliquot of each pool set aside and used as a standard for quantitative polymerase chain reaction (qPCR) analysis. All buffers and solutions were degassed prior to use and introduced into the microcolumns via programmable multichannel syringe pumps (Harvard Apparatus) with MEDUSA placed onto a 96-well format liquid waste reservoir. The microcolumns were reconfigured to run in parallel by removing the caps and silicone layers permitting the connectivity of microcolumns, and reassembling the device with the appropriate caps for a parallel configuration, and washed with 3 mL of binding buffer at a rate of 300 μL/min. The RNA/RNA-protein complexes were eluted directly into a 96-well microplate from the individual microcolumns by flowing elution buffer [binding buffer+50 mM ethylenediaminetetraacetic acid (EDTA pH 8.0) for selections with Ni-NTA resin; binding buffer+10 mM glutathione for selections with GSH resin; binding buffer+10 mM maltose for selections with amylose-resin] at a rate of 50 μL/min for 12 min. […]

NELF-E = target: T1, NELF-E (Drosophila, UniProt P92204 P92204:1-280); assay: pulldown; serial microcolumns, qPCR; enrichment falls above 0.6 ug/uL NELF-E, de-enriched at 10 ug/uL; settings: tags: N-terminal hexahistidine; immobilised on Ni-NTA Superflow resin
T1 sequence: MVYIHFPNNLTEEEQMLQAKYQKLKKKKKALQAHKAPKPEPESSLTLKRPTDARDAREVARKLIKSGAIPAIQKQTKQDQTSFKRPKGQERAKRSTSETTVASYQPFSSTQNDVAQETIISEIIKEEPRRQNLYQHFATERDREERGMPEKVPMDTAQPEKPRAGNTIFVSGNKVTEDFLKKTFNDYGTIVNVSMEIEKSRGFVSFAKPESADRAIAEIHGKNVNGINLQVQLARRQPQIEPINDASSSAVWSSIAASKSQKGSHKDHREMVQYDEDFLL

[1] = target: hHSF1 (heat shock factor 1) (UniProt Q00613 Q00613:1-529); assay: pulldown; serial microcolumns, qPCR; same buffer, 5 mM MgCl2; settings: tags: N-terminal GST; immobilised on glutathione-agarose
Protocol: as §1, §2

Sequence of hHSF1 (heat shock factor 1) (Q00613 whole entry, one chain of several): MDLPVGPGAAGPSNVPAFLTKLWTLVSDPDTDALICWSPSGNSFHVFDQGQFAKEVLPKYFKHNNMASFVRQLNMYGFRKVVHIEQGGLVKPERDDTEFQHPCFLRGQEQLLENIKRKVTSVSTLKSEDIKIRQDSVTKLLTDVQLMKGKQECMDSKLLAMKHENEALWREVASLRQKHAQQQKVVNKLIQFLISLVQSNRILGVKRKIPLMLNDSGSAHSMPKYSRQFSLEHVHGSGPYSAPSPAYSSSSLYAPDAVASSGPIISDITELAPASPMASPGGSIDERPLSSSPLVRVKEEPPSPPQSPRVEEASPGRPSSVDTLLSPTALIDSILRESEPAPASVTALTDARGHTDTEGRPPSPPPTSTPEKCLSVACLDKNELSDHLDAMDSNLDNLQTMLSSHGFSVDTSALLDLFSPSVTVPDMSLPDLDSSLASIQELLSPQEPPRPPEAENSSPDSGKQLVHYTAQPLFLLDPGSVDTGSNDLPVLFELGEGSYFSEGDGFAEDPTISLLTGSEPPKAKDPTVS

B1: GFPapt (AP3-1) (ssRNA)
RNA: AGCUUCUGGACUGCGAUGGGAGCACGAAACGUCGUGGCGCAAUUGGGUGGGGAAAGUCCUUAAAAGAGGGCCACCACAGAAGCU
With B1 the binding signal (GFP) was 750 fold enrichment over N70 library.

B2: NELFapt (Napt1) (ssRNA)
RNA: GGGAAUGGAUCCACAUCUACGAAUUCCCAACGACUGCCGAGCGAGAUUACGCUUGAGCGCCCCACUGAGGAUGCCCACGGGCGAUUGGGGCACGGCUUCACUGCAGACUUGACGAAGCUU
With B2 the binding signal (NELF-E) was 262 fold enrichment over N70 library.

B3: HSFapt (hHSF2-R5-2) (ssRNA)
RNA: GGGAAUGGAUCCACAUCUACGAAUUCAAUCAAGUCCCCAGACUCAGCAACACUGGACAGCGAUAUGCAGAUAACCAAGACCAAUUCACUCCAGUUCACUGCAGACUUGACGAAGCUU
B3 was tested, and the binding signal [1] was 232 fold enrichment over N70 library.
